Reference: patent publication US20260258115A1 (MAPP BIOPHARMACEUTICAL, published 2026)

What was measured:
[1] = biological target: RSV F on RSV subtype A virus (RSV-A2) (Respiratory Syncytial Virus, subtype A, …, UniProt P03420 26-574); test: cell-based or functional assay
[2] = biological target: T1, RSV postfusion F (postF), subtype B (respiratory syncytial virus subtype B); test: BLI, IgG
T1 construct: also called Postfusion subtype B

[3] = biological target: T2, RSV postfusion F (postF), subtype A (respiratory syncytial virus subtype A, UniProt P03420 26-513); test: BLI
T2 construct: also called Postfusion subtype A; F deltaFP

[4] = biological target: T3, RSV prefusion F (preF), subtype B (respiratory syncytial virus subtype B); test: BLI, IgG
T3 construct: also called Prefusion subtype B

Row | Binder | Neutralization - RSV A2 IC50 (pM) [1] [pM] | neut IC50 (ug/ml) subtype A (wright) [1] [µg/mL] | Kd [2] [nM] | also measured
1 | ADI-41222 (antibody, V domains shown) VH: QVTLKESGGGVVQPGRSQRLSCTASGFNFHNYAMHWVRQAPGKGLEWVAVISYDGSNKNFADSVKGRFTISRDNSKNTLNLQMNNLRAEDTAVYYCVRDIVRGSPLFDYWGQGTLVTVSS VL: QPVLTQPPSLSVAPGQTAWITCGGNNIGSKIVHWYQQKPGQAPVVVVYDDDDRPSGIPERFSGSNSGNTATLTIRRVEVGDEADYYCQVWDRSSDNYVFGTGTKVSVL | 39.9 | 0.016 | – | –
2 | ADI-41232 (antibody, V domains shown) VH: QVQLVQSGAEVKKPGASVKVSCKASGYTFTHYGISWVRQAPGQGLEWMAWISAYNGNTNYAQKLQDRVTVTTDTSTSTAYMELRSLRSDDTALYYCARDSMGGTTLFDYWGQGTLVTVSS VL: DIVLTQTPLSLPVTLGQPASISCRSSQSLVYSDGNTYLNWFQQRPGQSPRRLIYKVSNRDSGVPDRFTGSGSGTDFTLKISRVEAEDVGVYYCMQGTHWPPMYTFGQGTKLEIK | 104 | 0.025 | – | –
3 | ADI-41249 (antibody, V domains shown) VH: QVQLVQSGAEVKKPGESLKISCQVSRDTSTTYWIGWVRQMPGKGLEWMGIIFPGDSDTRYSPSFQGQVTISADKSIMTAYLQLTSLKASDTAMYYCATQALRGAFDIWGQGTMVTVSS VL: DIRLTQSPSSLSASVGDRVTITCQASQDISNYLNWYQQKPGKAPKLLIYDASYLETGVPSRFSGSGSGTDFTFTISSLQPEDFATYYCQQYDDLLFTFGPGTKLEIK | 51.7 | 0.006 | – | –
4 | ADI-41344 (antibody, V domains shown) VH: EVQLVESGGGLVKPGGSLRLSCAASGSSFSSYYMNWVRQAPGKGLEWVSSISSSSTYIDYADSVKGRFTISRDNAKNSLFLQMNSLRAEDTAVYYCARVSSPMIRGYYLDYWGQGTLVTVSS VL: QPVLTQPPSVSGAPGQRVTISCTGSSSNIGAGYDVHWYQQLPGTAPKLVIHGNSNRPSGVPDRFSGSKSGTSASLAITGLQGEDEADYYCQSYDSSLSGSVFGGGTKLTVL | 229 | 0.064 | – | –
5 | ADI-41563 (antibody, V domains shown) VH: QVQLVESGPGLVKPSETLSLTCTVSDDSITNNFWTWIRQPPGKGLEWIGYIYYSGSTNYNPSLKSRITMSVDLSKNQFSLKLSSVTAADTAVYYCARLTSGGVDYWGQGTLVTVSS VL: QSVLTQPPSLSGAPGQRVTISCTGSSSNIGADYHVHWYQQLPGTAPKLLIYQNTNRPSGVPDRFSASKSGTSVSLAITGLQAEDEADYYCQSYDSSLSAWVFGGGTKLTVL | 139 | 0.032 | – | –
6 | ADI-41594 (antibody, V domains shown) VH: EVQLVESGGGLVKPGGSLRLSCAASGFSFSSYYMNWVRQAPGKGLEWVSSISPSSSYTNYADSVKGRFTISRDNAKDSLYLQMNSLRAEDTAVYYCARDGLLGITIFGVVQDYWGQGTLVTVSS VL: QSVVTQPPSVSGAPGQRVTISCTGSSSNIGAGYDVHWYQQLPGTAPKLLIYGNTNRPSGVPDRFSASKSGTSASLAITGLQAEDEADYYCQSYDSSLSVVFGGGTKLTVL | 208 | 0.041 | – | –
7 | ADI-25573 (antibody, V domains shown, full-length IgG) VH: EVQLVESGAEVKKPGASVKVSCKASGYTFTSYYMHWVRQAPGQGLEWMGIINPSGGSTSYAQKFQGRVTMTRDTSTSTVYMELSSLRSEDTAVYYCARGPYDSSGYCDYWGQGTLVTVSS VL: SYELMQPPSVSVAPGKTARITCGGNNIGSKSVHWYQQKPGQAPVLVVYDDSDRPSGTPERFSGSNSGNTATLTISRVEAGDEADYYCQVWDSSSDQVFGGGTKVTVL | – | – | 48.6 | binding result [3]: no binding
8 | ADI-19511 (antibody, V domains shown, full-length IgG) VH: QITLKESGPTLVKPTQTLTLTCTFSGFSLSTSGVGVGWIRQPPGKALEWLALIYWDDDKRYSPSLKSRLTITKDTSKNQVVLTMTNMDPVDTATYYCAHSVYYDFWSGYYVPNYFDYWGQGTLVTVSS VL: DIQMTQSPSSLSASVGDRVTITCRASQGIRNDLGWYQQKPGKAPKRLIYAASSLQSGVPSRFSGSGSGTEFTLTISSLQPEDFATYYCLQHNSYPLTFGGGTKVEIK | – | – | 15.3 | binding result [3]: no binding
9 | ADI-24793 (antibody, V domains shown, full-length IgG) VH: QVQLVQSGAEVKKPGESLKISCKGSGYSFTSYWIGWVRQMPGKGLEWMGIIYPGDSDTRYSPSFQGQVTISADKSISTAYLQWSSLKASDTAMFYCVMGSYSYYFDYWGQGTLVTVSS VL: NFMLTQPHSVSESPGKTVTISCTRSSGSIASNYVQWYQQRPGSAPTTVIYEDNLRPSGVPDRFSGSIDSSSNSASLTISGLKTEDEADYYCQSYDSSNQVFGGGTKLTVL | – | – | 26.8 | binding result [3]: no binding
10 | ADI-19478 (antibody, V domains shown, full-length IgG; also called Ab 180) VH: QVQLVESGPGVVKPSETLSLTCTVSGGPVSSRSYYWGWIRQPPGKGLEWIGSIYYSGSTYYNTSLKSRVTISVDTSKNQFSLKLSSVTAADTAVYYCAKLQYSTSGFDYWGQGTLVTVSS VL: QPVLTQPPSVSEAPRQRVTISCSGSSSNIGNNAVSWYQQLPGKAPKLLIYYDDLVPSGVSDRFSGSKSGTSASLAISGLQSEDEADYYCAAWDDSLNGVVFGGGTKLTVL | – | – | 0.713 | –
11 | ADI-19497 (antibody, V domains shown, full-length IgG) VH: QVQLVQSGAEVKKPGASVKVSCKASGYTFTSYYMHWVRQAPGQGLEWMGIINPSGGSTSYAQKFQGRVTMTRDTSTSTVYMELSSLRSEDTAVYYCSRGYSYGYDYWGQGTLVTVSS VL: NFMLTQPHSVSESPGKTVTISCTRSSGSIASNYVQWYQQRPGSSPTTVIYEDNQRPSGVPDRFSGSIDSSSNSASLTISGLKTEDEADYYCQSYDSSNWVFGGGTKLTVL | – | – | 13.4 | –
12 | ADI-19503 (antibody, V domains shown, full-length IgG) VH: QVQLVQSGAEVKKPGASVKVSCKASGYTFTSYYMHWVRQAPGQGLEWMGIINPSGGSTSYAQKFQGRVTMTRDTSTSTVYMELSSLRSEDTAVYYCARDSLVNCSGGSCPGGPDYWGQGTLVTVSS VL: SYVLTQPPSVSVSPGQTARITCSGDALPKKYAYWYQQKSGQAPVLVIYEDSKRPSGIPERFSGSSSGTMATLTISGAQVEDEADYYCYSTDSSGNHRVFGGGTKLTVL | – | – | 11.6 | –
13 | ADI-14356 (antibody, V domains shown, full-length IgG; also called Ab 24) VH: QVQLQESGAGLLKPSETLSLTCAVYGGSFSGYYWSWIRQPPGKGLEWIGEINHSGSTNYNPSLKSRVTISVDTSKNQFSLKLSSVTAADTAVYYCARDQRIVVVGAATEPYYYYYGMDVWGQGTTVTVSS VL: QPVLTQPPSVSVSPGQTARITCSGDALPKQYAYWYQQKPGQAPVLVIYKDSERPSGIPERFSGSSSGTTVTLTISGVQAEDEADYYCQSADSSGTYRVFGGGTKLTVL | – | – | 4.98 | Kd [4]: 13 nM
14 | ADI-14369 (antibody, V domains shown, full-length IgG; also called Ab 37) VH: QVQLVQSGAEVKKPGSSVKVSCKASGGTFSSNAISWVRQAPGQGLEWMGGIIPIFATANYAQNFQDRVTITADESTGTAYMELSSLRYEDTAVYYCAKSAIHSGYHGPARSGFYQNGMDVWGQGTTVTVSS VL: not shown | – | – | 0.9 | Kd [4]: 3.38 nM
15 | ADI-25576 (antibody, V domains shown, full-length IgG; also called Ab 460) VH: EVQLVESGGGLVQPGGSLRLSCAASGFTFSSYWMHWVRQAPGKGLVWVSRINSDGSSTSYADSVKGRFTISRDNAKNTLYLQMNSLRAEDTAVYYCARGLYNWNHDYWGQGTLVTVSS VL: NFMLTQPHSVSESPGKTVTISCTRSSGSIASNYVQWYQQRPGSSPTTVIYEDNQRPSGVPDRFSGSIDSSSNSASLTISGLKTEDEADYYCQSYDSSNVVFGGGTKVTVL | – | – | 23.9 | –
